Measured values taken from patent US20050123911A1, “Method of mass spectrometry” (priority 2001, published 2005).
“And” between values parts separate entries of the source, which are not always exact repeats. Equal values may be shown once. Gly∗ = not defined here; Ac∗ = not defined here

Legend:
Trypsin = biological target: T1, Trypsin (Bos taurus, UniProt P00760); test: Incubation of single DiMaS peptides with trypsin, LC-MS analysis; format: biochemical; details: for Cleaved sequence following incubation with trypsin (FIG. 13): mass spectrum; for Cleavage site on incubation with Trypsin / Cleaved fragment identified after incubation with Trypsin (Table 1): room temperature, 9 h; for Cleavage site on incubation with Trypsin: aliquot every 2 h, LC-MS; for Cleaved fragment identified after incubation with Trypsin (Table 1): HPLC/MS
T1 construct: purchased Sigma T1426
T1 sequence (P00760 24-246): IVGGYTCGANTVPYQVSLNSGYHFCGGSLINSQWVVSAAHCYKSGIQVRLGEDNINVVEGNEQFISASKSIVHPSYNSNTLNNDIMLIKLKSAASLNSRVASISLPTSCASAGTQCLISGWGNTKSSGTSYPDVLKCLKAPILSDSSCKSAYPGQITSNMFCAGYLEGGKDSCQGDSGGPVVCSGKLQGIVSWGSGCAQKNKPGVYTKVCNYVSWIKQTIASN
Description: (§1) The peptide (10 μl of 1 mM in Acetonitrile) was treated with a solution of buffer (50 mM HEPES, 150 mM NaCl and 1 μM Zn^2+, 35 μl), and finally Trypsin was added (5 μl, 2.5 μM). The reaction was allowed to take place at room temperature for 9 h and an aliquot of solution was removed for LC-MS analysis.
Peptides 4 and 10 were incubated with trypsin as described above and then analysed by HPLC/MS to give masses according to Table 1.
Compounds 7(2) and 7(13) (10 μl in Acetonitrile) were treated with a solution of buffer (50 mM HEPES, 150 mM NaCl and 1 μM Zn^2+, 35 μl), and finally Trypsin was added (5 μl, 2.5 μM). The reaction was allowed to take place at room temperature for 9 h and an aliquot of solution was removed for LC-MS analysis every 2 h.

[1] = biological target: T2, neutral endopeptidase (NEP) (Homo sapiens, UniProt P08473); test: Incubation of DiMaS peptides with NEP, LC-MS analysis; format: biochemical; details: room temperature, 9 h, HPLC/MS
T2 construct: purchased BioMep
T2 sequence (P08473 whole entry, species assumed): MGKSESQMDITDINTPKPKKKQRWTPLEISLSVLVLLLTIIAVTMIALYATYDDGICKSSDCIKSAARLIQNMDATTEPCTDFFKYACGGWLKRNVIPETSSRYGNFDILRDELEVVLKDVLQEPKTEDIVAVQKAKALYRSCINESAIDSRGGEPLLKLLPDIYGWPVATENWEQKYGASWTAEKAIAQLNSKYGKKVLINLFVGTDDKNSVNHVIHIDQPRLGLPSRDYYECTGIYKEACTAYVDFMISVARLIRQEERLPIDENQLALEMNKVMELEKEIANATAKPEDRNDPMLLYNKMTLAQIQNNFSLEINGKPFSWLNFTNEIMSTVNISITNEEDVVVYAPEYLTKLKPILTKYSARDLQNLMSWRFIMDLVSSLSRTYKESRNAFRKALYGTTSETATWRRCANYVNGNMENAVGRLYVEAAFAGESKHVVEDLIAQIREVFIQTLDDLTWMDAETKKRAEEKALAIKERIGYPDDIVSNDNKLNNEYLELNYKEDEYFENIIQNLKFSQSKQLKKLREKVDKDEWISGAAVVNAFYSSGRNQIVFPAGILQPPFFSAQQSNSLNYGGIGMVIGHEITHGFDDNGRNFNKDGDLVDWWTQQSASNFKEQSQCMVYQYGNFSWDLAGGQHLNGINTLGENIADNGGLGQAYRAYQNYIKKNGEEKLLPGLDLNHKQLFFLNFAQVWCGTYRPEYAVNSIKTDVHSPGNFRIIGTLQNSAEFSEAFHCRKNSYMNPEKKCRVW
Description: as §1, with “neutral endopeptidase (NEP)” for “Trypsin”
Peptides 4, 6 and 10 were incubated with NEP as described above and then analysed by HPLC/MS to give masses according to Table 1.

Substance | Cleaved sequence following incubation with trypsin (FIG. 13) (Trypsin) | Cleavage site on incubation with Trypsin (Trypsin) | Cleaved fragment identified after incubation with Trypsin (Table 1) (Trypsin) | Cleaved fragment identified after incubation with NEP (Table 1) [1]
Ac-Gly* Ala Ala Phe Lys Arg Ala Gly Ala Ala Lys(Ac*)-NH2 ({Ac-Gly∗}-AAFKRAGAAK(Ac∗)-NH2; reading uncertain; also: isotope labels: Gly* with D2 or H2, Ac* with D3 or H3, printed as Ac-Gly* Ala Ala Phe Lys Arg Ala Gly Ala Ala Lys(Ac*)-NH2) [7(17)] | Ac-Gly-Ala-Ala-Phe-Lys-Arg-OH |  |  | 
Ac-Gly* Ala Gly Arg Ala Asn Ile Asp Phe Ala Lys(Ac*)-NH2 ({Ac-Gly∗}-AGRANIDFAK(Ac∗)-NH2; reading uncertain; also: isotope labels: Gly* with D2 or H2, Ac* with D3 or H3, printed as Ac-Gly* Ala Gly Arg Ala Asn Ile Asp Phe Ala Lys(Ac*)-NH2) [7(2)] | H2N-Ala-Asn-Ile-Asp-Phe-Ala-Lys(ac)-NH2 | cleavage after the arginine residue |  | 
Ac-Gly* Ala Phe Leu Ala Arg Asn Ile Asp Leu Lys(Ac*)-NH2 ({Ac-Gly∗}-AFLARNIDLK(Ac∗)-NH2; reading uncertain; also: isotope labels: Gly* with D2 or H2, Ac* with D3 or H3, printed as Ac-Gly* Ala Phe Leu Ala Arg Asn Ile Asp Leu Lys(Ac*)-NH2) [7(13)] |  | cleavage after the arginine residue |  | 
AcGly-Pro-Arg-Ala-Ala-Ala-Gly-NH2 (Ac-GPRAAAG-NH2; also: partly isotope-labelled (D in acetyl and a Gly), extent not given here) [Peptide 4] |  |  | 371, 374: AcGlyProArgOH and H2NalaAlaAlaGlyNH2 | AcGlyProArgAlaOH and 239, 241: H2NAlaAlaGlyNH2
AcHis-His-Gln-Lys-Leu-Val-Phe-Phe-Ala-Gly-NH2 (Ac-HHQKLVFFAG-NH2; also: partly isotope-labelled (D in acetyl and a Gly), extent not given here) [Peptide 10] |  |  | 591, 594 AcHisHisGlnLysOH and H2NleuValPhePheAlaGlyNH2 | AcHisHisGlnLysLeuOH and 315, 317: NH2PheAlaGlyNH2
AcSer-Glu-Val-Asn-Leu-Asp-Ala-Glu-Phe-Gly-NH2 (Ac-SEVNLDAEFG-NH2; also: partly isotope-labelled (D in acetyl and a Gly), extent not given here) [Peptide 6] |  |  |  | H2NleuAspAlaGluPheGlyNH2
